Results: PMC7397094

Biological target: human recombinant RetGC1 (retinal membrane guanylyl cyclase 1) (human) (UniProt Q02846)
Sequence of UniProt Q02846 (Q02846 52-1103): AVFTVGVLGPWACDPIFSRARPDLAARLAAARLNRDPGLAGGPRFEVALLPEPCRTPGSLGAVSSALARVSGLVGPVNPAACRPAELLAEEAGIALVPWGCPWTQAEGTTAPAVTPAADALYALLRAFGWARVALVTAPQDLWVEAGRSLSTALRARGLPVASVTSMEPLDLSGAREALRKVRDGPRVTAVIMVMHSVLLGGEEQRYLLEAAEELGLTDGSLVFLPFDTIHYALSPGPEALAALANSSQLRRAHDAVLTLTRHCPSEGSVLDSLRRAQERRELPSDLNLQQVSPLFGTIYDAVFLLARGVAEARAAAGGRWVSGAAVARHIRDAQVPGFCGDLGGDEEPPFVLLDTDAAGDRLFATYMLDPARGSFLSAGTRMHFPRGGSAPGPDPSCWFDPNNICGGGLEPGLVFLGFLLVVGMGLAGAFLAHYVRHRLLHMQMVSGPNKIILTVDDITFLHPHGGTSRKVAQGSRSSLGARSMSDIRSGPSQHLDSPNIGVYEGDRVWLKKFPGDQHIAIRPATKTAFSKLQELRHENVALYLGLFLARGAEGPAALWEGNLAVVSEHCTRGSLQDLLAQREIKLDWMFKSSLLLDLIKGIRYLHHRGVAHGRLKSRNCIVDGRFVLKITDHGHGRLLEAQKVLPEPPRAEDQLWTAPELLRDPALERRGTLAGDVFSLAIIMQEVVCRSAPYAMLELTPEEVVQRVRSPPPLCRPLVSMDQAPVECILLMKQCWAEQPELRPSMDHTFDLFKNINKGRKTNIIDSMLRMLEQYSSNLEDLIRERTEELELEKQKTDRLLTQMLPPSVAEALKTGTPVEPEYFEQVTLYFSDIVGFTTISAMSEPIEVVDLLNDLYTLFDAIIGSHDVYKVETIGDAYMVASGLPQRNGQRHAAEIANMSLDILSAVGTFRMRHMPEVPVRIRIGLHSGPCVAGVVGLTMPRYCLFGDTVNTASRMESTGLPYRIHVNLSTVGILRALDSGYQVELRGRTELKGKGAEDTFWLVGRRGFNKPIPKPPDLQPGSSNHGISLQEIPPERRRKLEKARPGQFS

Substance | RetGC1 activity left with 100 nM RD3, % of that without RD3 (1.5 uM GCAP1) [%]
RD3 77ERLQ80→77QLRE80 (from UniProt Q7Z3Z2 1-195) (natural protein) | 11.5
RD3 154KTRAR158→154ENSES158 (from UniProt Q7Z3Z2 1-195) (natural protein) | 7.5
RD3 171EDVERD176→171KKAKQR176 (from UniProt Q7Z3Z2 1-195) (natural protein) | 2.5
RD3 A105Y (from UniProt Q7Z3Z2 1-195) (natural protein) | 17.9
RD3 A151R/T152Q (from UniProt Q7Z3Z2 1-195) (natural protein) | 7.1
RD3 C55D (from UniProt Q7Z3Z2 1-195) (natural protein) | 6.9
RD3 D72R (from UniProt Q7Z3Z2 1-195) (natural protein) | 5.5
RD3 D83R (from UniProt Q7Z3Z2 1-195) (natural protein) | 7.2
RD3 E27R (from UniProt Q7Z3Z2 1-195) (natural protein) | 6.6
RD3 E41R (from UniProt Q7Z3Z2 1-195) (natural protein) | 12.6
RD3 E108K (from UniProt Q7Z3Z2 1-195) (natural protein) | 7.1
RD3 E127R/R128E (from UniProt Q7Z3Z2 1-195) (natural protein) | 10.1
RD3 F153R (from UniProt Q7Z3Z2 1-195) (natural protein) | 7.3
RD3 I76R (from UniProt Q7Z3Z2 1-195) (natural protein) | 7.5
RD3 I97Y (from UniProt Q7Z3Z2 1-195) (natural protein) | 55
RD3 L98Y (from UniProt Q7Z3Z2 1-195) (natural protein) | 9.9
RD3 L144W (from UniProt Q7Z3Z2 1-195) (natural protein) | 7.3
RD3 M24D (from UniProt Q7Z3Z2 1-195) (natural protein) | 10.9
RD3 P67D (from UniProt Q7Z3Z2 1-195) (natural protein) | 11

Substance | RetGC1 activity left with 100 nM RD3, % of that without RD3 (1.5 uM GCAP1) [%]
RD3 P75R (from UniProt Q7Z3Z2 1-195) (natural protein) | 10.7
RD3 P90A (from UniProt Q7Z3Z2 1-195) (natural protein) | 24.2
RD3 Q43R (from UniProt Q7Z3Z2 1-195) (natural protein) | 5.3
RD3 Q112E/E113Q (from UniProt Q7Z3Z2 1-195) (natural protein) | 9.2
RD3 Q123E/E124Q (from UniProt Q7Z3Z2 1-195) (natural protein) | 11.9
RD3 R42E (from UniProt Q7Z3Z2 1-195) (natural protein) | 14.5
RD3 R145D (from UniProt Q7Z3Z2 1-195) (natural protein) | 9.2
RD3 S65Y (from UniProt Q7Z3Z2 1-195) (natural protein) | 10.8
RD3 S69Y (from UniProt Q7Z3Z2 1-195) (natural protein) | 9
RD3 S91Y (from UniProt Q7Z3Z2 1-195) (natural protein) | 13.3
RD3 S143Y (from UniProt Q7Z3Z2 1-195) (natural protein) | 9.1
RD3 T18D/R19A (from UniProt Q7Z3Z2 1-195) (natural protein) | 14.9
RD3 T28R (from UniProt Q7Z3Z2 1-195) (natural protein) | 15.3
RD3 T34Q (from UniProt Q7Z3Z2 1-195) (natural protein) | 8.1
RD3 T56H (from UniProt Q7Z3Z2 1-195) (natural protein) | 9.2
RD3 V58Q (from UniProt Q7Z3Z2 1-195) (natural protein) | 16.7
RD3 V86R/K87A (from UniProt Q7Z3Z2 1-195) (natural protein) | 7.1
RD3 W6L (from UniProt Q7Z3Z2 1-195) (natural protein) | 11.1
RD3 Y71E (from UniProt Q7Z3Z2 1-195) (natural protein) | 16.4

The remaining lines, values ahead:

RetGC1 activity left with 100 nM RD3, % of that without RD3 (1.5 uM GCAP1) [%] | Substance
3.9 | RD3 3L→S5 deletion (from UniProt Q7Z3Z2 1-195) (natural protein)
17.9 | RD3 45RER47→45AAA47 (from UniProt Q7Z3Z2 1-195) (natural protein)
12.4 | RD3 50AVRK53→50KAIE53 (from UniProt Q7Z3Z2 1-195) (natural protein)
11.8 | RD3 132EEE134→132QQQ134 (from UniProt Q7Z3Z2 1-195) (natural protein)
8.6 | RD3 137KLTRQ141→137QRKTL141 (from UniProt Q7Z3Z2 1-195) (natural protein)
9.6 | RD3 147RGSL150→147GRLS150 (from UniProt Q7Z3Z2 1-195) (natural protein)
9.5 | RD3 164SDIRT168→164RSDTI168 (from UniProt Q7Z3Z2 1-195) (natural protein)
8.5 | RD3 178PPP180→178AAA180 (from UniProt Q7Z3Z2 1-195) (natural protein)
12.7 | RD3 186SMP188→186PRS188 (from UniProt Q7Z3Z2 1-195) (natural protein)
6.4 | RD3 A22E (from UniProt Q7Z3Z2 1-195) (natural protein)
14.4 | RD3 A22Y (from UniProt Q7Z3Z2 1-195) (natural protein)
15 | RD3 A64R (from UniProt Q7Z3Z2 1-195) (natural protein)
8.5 | RD3 A105R (from UniProt Q7Z3Z2 1-195) (natural protein)
9.1 | RD3 A135R (from UniProt Q7Z3Z2 1-195) (natural protein)
8.2 | RD3 E23R (from UniProt Q7Z3Z2 1-195) (natural protein)
6.6 | RD3 E39R (from UniProt Q7Z3Z2 1-195) (natural protein)
10.3 | RD3 E41A (from UniProt Q7Z3Z2 1-195) (natural protein)

RetGC1 activity left with 100 nM RD3, % of that without RD3 (1.5 uM GCAP1) [%] | Substance
9.6 | RD3 E110R (from UniProt Q7Z3Z2 1-195) (natural protein)
5.5 | RD3 G35Y (from UniProt Q7Z3Z2 1-195) (natural protein)
5.9 | RD3 L98R (from UniProt Q7Z3Z2 1-195) (natural protein)
12.1 | RD3 L103R (from UniProt Q7Z3Z2 1-195) (natural protein)
6.6 | RD3 M31R (from UniProt Q7Z3Z2 1-195) (natural protein)
11.3 | RD3 P67G (from UniProt Q7Z3Z2 1-195) (natural protein)
10.8 | RD3 Q116Y (from UniProt Q7Z3Z2 1-195) (natural protein)
18.2 | RD3 R38S (from UniProt Q7Z3Z2 1-195) (natural protein)
12.4 | RD3 R68D (from UniProt Q7Z3Z2 1-195) (natural protein)
12 | RD3 R119S (from UniProt Q7Z3Z2 1-195) (natural protein)
11.5 | RD3 S20Y/P21R (from UniProt Q7Z3Z2 1-195) (natural protein)
8.2 | RD3 S120Y (from UniProt Q7Z3Z2 1-195) (natural protein)
7.3 | RD3 T66K (from UniProt Q7Z3Z2 1-195) (natural protein)
8.2 | RD3 T70R (from UniProt Q7Z3Z2 1-195) (natural protein)
7.9 | RD3 W142A (from UniProt Q7Z3Z2 1-195) (natural protein)
15.4 | RD3 Y71G (from UniProt Q7Z3Z2 1-195) (natural protein)

Biological target: human recombinant RetGC1 (retinal membrane guanylyl cyclase 1) (human) (UniProt Q02846)
Remark: another data set of the same source

Substance | IC50 of inhibition of GCAP1-activated RetGC1 activity [µM]
RD3 A105R (from UniProt Q7Z3Z2 1-195) (natural protein) | 0.0036
RD3 A105Y (from UniProt Q7Z3Z2 1-195) (natural protein) | 0.0167
RD3 R101A/Q102L (from UniProt Q7Z3Z2 1-195) (natural protein) | 4.46
